Laboratory results from US20150098945A1 (Daiichi Sankyo, published 2015).

Tests used:
[1] = molecular target: T1, mouse ROBO4 (pCI-mROBO4-transfected HEK293 cells) (mouse, UniProt Q8C310 28-1012); experiment: flow cytometry (FC500), HEK293 cells transfected with pCI-mROBO4, FITC goat anti-human IgG Fc; control histogram IgG (human IgG)
T1 sequence: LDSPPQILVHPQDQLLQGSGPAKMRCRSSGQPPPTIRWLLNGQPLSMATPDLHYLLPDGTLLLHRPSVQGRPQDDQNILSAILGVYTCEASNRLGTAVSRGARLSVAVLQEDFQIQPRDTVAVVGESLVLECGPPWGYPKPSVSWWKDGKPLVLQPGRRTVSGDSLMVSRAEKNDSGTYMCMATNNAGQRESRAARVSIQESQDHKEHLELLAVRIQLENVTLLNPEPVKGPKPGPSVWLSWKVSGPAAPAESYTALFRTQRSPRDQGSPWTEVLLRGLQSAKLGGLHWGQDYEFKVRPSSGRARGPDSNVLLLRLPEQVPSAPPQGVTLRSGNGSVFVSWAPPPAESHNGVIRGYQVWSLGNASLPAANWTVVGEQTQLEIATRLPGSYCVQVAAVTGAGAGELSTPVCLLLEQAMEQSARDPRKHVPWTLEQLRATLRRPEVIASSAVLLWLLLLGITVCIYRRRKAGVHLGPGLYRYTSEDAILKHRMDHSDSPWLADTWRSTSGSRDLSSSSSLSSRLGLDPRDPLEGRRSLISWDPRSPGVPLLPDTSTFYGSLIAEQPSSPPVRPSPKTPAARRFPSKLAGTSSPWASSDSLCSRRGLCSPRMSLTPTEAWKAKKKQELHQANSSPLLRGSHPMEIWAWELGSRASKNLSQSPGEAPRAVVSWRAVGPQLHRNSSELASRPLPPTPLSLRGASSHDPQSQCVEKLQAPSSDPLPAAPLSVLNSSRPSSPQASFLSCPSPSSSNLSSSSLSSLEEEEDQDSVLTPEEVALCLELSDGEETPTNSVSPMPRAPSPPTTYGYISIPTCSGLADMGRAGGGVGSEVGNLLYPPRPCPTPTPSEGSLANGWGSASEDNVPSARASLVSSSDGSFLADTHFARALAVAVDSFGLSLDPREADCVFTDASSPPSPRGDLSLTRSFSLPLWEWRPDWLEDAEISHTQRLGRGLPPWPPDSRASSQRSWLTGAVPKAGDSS

[2] = molecular target: T2, N-terminal FLAG-tagged cynomolgus monkey ROBO4, cynoROBO4-2 (pCI-FLAG-cynoROBO4-2) (cynomolgus monkey, UniProt Q8WZ75 28-1007 (human entry)); experiment: flow cytometry (FC500), HEK293 cells transfected with pCI-FLAG-cynoROBO4-2, antibody at 10 µg/mL, FITC goat anti-human IgG Fc; control histogram IgG (human IgG)
T2 chain: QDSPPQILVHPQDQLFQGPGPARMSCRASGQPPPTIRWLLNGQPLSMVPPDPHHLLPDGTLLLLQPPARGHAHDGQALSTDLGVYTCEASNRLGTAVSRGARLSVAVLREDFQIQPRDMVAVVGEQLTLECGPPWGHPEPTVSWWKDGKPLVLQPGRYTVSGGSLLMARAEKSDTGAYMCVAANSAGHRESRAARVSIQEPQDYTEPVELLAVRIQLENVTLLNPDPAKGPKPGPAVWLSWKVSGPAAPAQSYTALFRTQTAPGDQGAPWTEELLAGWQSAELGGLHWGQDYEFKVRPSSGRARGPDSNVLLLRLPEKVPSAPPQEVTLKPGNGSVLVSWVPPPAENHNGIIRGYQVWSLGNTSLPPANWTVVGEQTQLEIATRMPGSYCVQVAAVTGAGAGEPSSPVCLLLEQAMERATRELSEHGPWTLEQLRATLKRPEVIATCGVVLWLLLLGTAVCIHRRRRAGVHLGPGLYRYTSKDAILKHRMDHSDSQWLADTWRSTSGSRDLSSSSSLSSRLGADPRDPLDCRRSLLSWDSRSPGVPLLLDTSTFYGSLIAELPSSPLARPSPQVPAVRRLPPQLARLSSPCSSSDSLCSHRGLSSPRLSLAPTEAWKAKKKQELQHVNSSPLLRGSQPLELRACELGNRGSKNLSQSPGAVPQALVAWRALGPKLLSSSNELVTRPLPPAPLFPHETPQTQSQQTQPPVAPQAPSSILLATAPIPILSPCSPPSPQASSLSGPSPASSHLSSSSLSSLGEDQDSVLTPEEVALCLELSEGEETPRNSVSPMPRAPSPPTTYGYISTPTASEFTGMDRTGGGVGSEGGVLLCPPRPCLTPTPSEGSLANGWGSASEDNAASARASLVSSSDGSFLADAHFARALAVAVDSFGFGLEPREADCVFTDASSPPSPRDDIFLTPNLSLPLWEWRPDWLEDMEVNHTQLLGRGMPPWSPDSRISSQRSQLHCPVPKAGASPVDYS

binding result [1]: no binding (tested: 10 µg/mL)
binding result [2]: binds
B1: humanized MAb1 antibody H-1143 (antibody, human IgG2, kappa, V domains shown)
VH: EVQLVESGGGLVQPGGSLRLSCAASGFTFSTYAMSWVRQAPGKGLEWVATISQGGTYTYYPDSVKGRFTISRDNAKNTLYLQMNSLRAEDTAVYYCARLIYYDYLDYWGQGTLVTVSS
VL: DIVMTQSPLSLPVTLGEPASISCRSSQSLENENKNLYLNWYLQKPGQSPQLLIYRVSNRFSGVPDRFSGSGSGTDFTLKISRVEAEDVGVYYCLQVTHVPWTFGPGTKVDIKR
notes: Human IgG2 / kappa constant regions; also called hMAb1-H2-type heavy chain + hMAb1-L2-type light chain
